# Results published in patent US20240279288A1, “APPLICATION OF PLANT JAZ PROTEINS AND DERIVED POLYPEPTIDES IN PREVENTION AND TREATMENT OF HUMAN AND ANIMAL TUMORS” (ANYANG INSTITUTE OF SINO-COTTON INDUSTRY INNOVATION, priority 2021, published 2024).
# T1: NMYC (Homo sapiens, UniProt P04198)
# T1 construct: with the full length of c-Myc and NMYC, respectively; expressed in transfected cells; host or cells: yeast Y2HGold
# T1 sequence (P04198 1-464): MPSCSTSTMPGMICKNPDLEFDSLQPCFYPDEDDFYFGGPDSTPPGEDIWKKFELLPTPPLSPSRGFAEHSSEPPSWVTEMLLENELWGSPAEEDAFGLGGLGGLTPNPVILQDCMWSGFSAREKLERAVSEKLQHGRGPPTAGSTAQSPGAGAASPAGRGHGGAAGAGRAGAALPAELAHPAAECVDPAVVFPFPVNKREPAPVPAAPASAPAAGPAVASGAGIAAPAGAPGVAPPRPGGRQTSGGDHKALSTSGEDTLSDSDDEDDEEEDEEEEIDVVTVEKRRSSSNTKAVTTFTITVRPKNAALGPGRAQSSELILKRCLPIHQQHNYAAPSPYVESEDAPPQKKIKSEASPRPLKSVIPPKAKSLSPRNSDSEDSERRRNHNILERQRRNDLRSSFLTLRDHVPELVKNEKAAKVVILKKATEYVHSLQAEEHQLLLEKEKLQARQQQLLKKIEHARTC
# Key:
# NMYC = biological target: T1, NMYC; test: CO-IP with NMYC in HEK293 cells; type: binding
# Description: (§1) Steps of method of CO-IP experiment: Non-denaturing lysate was added to 293T cell culture plate (Pricella, Cat. No.: CL-0005), and the cells were completely lysed at 4° C. The lysate was centrifuged at 12,000 rpm for 10 min and the supernatant was collected. The corresponding antibody was added to the obtained non-denatured protein solution, which was incubated overnight at 4° C. Pierce™ protein A/G magnetic agarose (Thermo Fisher Scientific, Inc.) were washed with lysis buffer, followed by addition pre-treated beads to the cell lysate, and incubation at room temperature for 2 hours. The mixture was centrifuged at 4° C., 2,500 rpm for 5 min with supernatant removed, and the agarose beads were washed 5 times with 1 ml of lysis buffer. An appropriate amount of protein loading buffer was added to the pellet, and the sample was incubated in water bath at 100° C. for 10 min. The band of interest was detected by Western blotting.
# Immunoprecipitation method (method of the experiment as Example 3) was used.
# GhMYC2 = test: Luciferase experiment in tobacco leaves with GhMYC2; type: binding, cotton; details: no fluorescence on the control
# Sequence of GhMYC2 (as listed by the source): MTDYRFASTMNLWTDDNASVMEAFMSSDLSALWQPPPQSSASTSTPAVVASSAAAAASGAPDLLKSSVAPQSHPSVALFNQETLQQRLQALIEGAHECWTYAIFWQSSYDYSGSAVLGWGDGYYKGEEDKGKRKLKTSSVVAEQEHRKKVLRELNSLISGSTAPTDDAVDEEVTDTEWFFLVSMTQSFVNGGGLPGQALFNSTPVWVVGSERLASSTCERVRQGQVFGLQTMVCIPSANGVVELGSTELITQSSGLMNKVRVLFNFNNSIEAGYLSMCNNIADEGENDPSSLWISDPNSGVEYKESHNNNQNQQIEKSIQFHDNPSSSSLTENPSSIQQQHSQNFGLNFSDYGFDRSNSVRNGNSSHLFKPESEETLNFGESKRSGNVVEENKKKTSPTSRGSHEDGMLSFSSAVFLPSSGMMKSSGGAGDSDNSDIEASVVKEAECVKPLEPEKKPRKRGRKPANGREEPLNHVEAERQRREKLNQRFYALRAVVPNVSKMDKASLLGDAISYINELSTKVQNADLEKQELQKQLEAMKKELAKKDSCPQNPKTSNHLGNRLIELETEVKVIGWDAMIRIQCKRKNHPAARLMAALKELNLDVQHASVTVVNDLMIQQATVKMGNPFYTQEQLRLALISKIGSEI
# From the text: Method of the luciferase experiment: GhJAZ1 (corresponding encoding gene sequence set forth in SEQ ID No. 39) was subcloned into pCAMBIA-CLuc vector (Chen, H., et al. “Firefly Luciferase Complementation Imaging Assay for Protein-Protein Interactions in Plants.” Plant Physiology 146.2(2008):368-376.) between KpnI and SalI cleavage sites, and the transcription factors such as GhMYC2 (corresponding encoding gene sequence set forth in SEQ ID No. 72), GhNINJA (corresponding encoding gene sequence set forth in SEQ ID No. 74), and GhCOI1 (corresponding encoding gene sequence set forth in SEQ ID No. 80) were subcloned into pCAMBIA-NLuc (Chen, H., et al. “Firefly Luciferase Complementation Imaging Assay for Protein-Protein Interactions in Plants.” Plant Physiology 146.2(2008):368-376.) between KpnI and SalI cleavage sites, respectively. […] Luciferase substrates were applied at the infected leaves before taking images and placed in a dark room for at least 6 min to quench fluorescence, followed by observation on the Nightowl-II LB983 instrument, using IndigoBasic software under the luciferase-5 min setting conditions.
# [1] = tested on: normal breast epithelial cells MCF10A; test: Cell cycle detection (PI DNA content), MCF10A; type: cell-based; details: 0.691 μM, 24 h, vs PBS
# Description: Cell cycle detection: cells were moderately digested by trypsin, and collected by centrifugation with supernatant removed, and then cells were washed with PBS, and collected by centrifugation at 1,500 rpm for 5 minutes to prepare a single-cell suspension (at a concentration of 1×10^6/ml). 1 ml of single-cell suspension was then taken and centrifuged with the supernatant discarded, and then 500 μl of 70% pre-cooled ethanol were added to fix the cells overnight at 4° C. The next day, cells were collected by centrifugation, resuspended with 1 ml of PBS and centrifuged, and then 100 μl of RNase A solution were added to the cell pellet, followed by placement in water bath at 37° C. for 30 min, and then 400 μl of PI staining solution was added and mixed well, followed by incubation at 4° C. in dark for 30 min and detection on the instrument to record under red fluorescence at the excitation wavelength of 488 nm. Specifically, a DNA content detection kit (cell cycle) (Solarbio, Cat. No.: CA1510) was used.
# MCF7 cells = test: Apoptosis staining (Calcein AM/PI), fluorescence microscopy; type: cell-based, human; details: Calcein AM/PI staining vs PBS
# Description: Method for apoptosis staining. Fluorescence microscopy detection: a. Seeding and culturing. Cells were seeded onto multiwell plates such as 96-well plates, cell culture dishes, or cell slides, and were treated in a certain way according to the experimental design. b. Washing (optionally). For adherent cells, the medium was removed, and cells were washed once with PBS. For suspended cells, cells were centrifuged at 250-1000×g at room temperature for 5 min, with the supernatant removed, followed by washing once with PBS. Phenol red or serum might interfere with the detection of this kit, therefore, a vacuum pump was preferred when removing the medium and PBS. PBS washing was not necessary in the case that the residual liquid can be sufficiently aspirated. c. Staining. An appropriate volume of Calcein AM/PI detection working solution (Beyotime Biotech. Inc., Calcein/PI Cell Viability and Cytotoxicity Detection Kit, Cat. No.: C2015) was added. Usually, 100 μl were added to each well for a 96-well plate, 250 μl for a 24-well plate, 500 μl for a 12-well plate, and 1 ml for a 6-well plate. Incubation was performed at 37° C. in dark for 30 min. […] After incubation, the staining effect was observed under a fluorescence microscope (with Calcein AM in green fluorescence, Ex/Em=494/517 nm; PI in red fluorescence, Ex/Em=535/617 nm). […]
# GhHDA6 = test: CO-IP experiment with GhHDA6; type: binding, cotton
# Sequence of GhHDA6 (as listed by the source): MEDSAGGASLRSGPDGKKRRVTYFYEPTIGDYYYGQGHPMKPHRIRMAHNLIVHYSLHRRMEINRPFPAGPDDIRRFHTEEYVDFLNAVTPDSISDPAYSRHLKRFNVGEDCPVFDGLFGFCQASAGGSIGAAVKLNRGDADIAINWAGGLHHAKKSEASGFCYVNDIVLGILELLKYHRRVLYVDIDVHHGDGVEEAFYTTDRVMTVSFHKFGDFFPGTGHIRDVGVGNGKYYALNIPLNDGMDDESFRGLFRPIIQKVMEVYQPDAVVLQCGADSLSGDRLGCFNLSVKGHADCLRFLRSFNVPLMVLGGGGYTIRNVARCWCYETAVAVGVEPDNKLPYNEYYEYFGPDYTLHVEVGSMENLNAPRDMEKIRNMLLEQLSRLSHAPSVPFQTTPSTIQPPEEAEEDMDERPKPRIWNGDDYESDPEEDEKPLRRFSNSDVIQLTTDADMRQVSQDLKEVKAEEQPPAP
# Description: as §1
molecule,measurement,setting,value
"GhJAZ1: cotton JAZ1 protein, gene number Gh_A05G0260, sequence SEQ ID No. 4; prokaryotically expressed with His tag, about 30 KD (protein, His tag, prokaryotically expressed with His tag, about 30 KD) MSSCSESTAMKPARSPEKPSFAQTCNLLSQYLKEKGSFGDLSLGMTCNVEANGTPVVPPPTMNLFPLNDKSDDVCGRNGGNPKNLTSMDLFPQQAGLASKDDSPNKLEPQTAPMTIFYGGQVIVFNDFPANKAKEIMLLASNSSSQSNNSFNPIPFTSSIARSPIESSIGVPPTSKPVHPAQRAVPGDLPIARRASLHRFLEKRKDRITAKAPYQINNSAAAPSLSGDNKSWLGLAAQSP",interaction with NMYC,NMYC,interacted
same,fluorescence with GhMYC2 after applying luciferase substrate,GhMYC2,stronger fluorescence
same,G2-M phase block in MCF10A cells,[1],no G2-M phase block
same,mortality rate of MCF7 cells,MCF7 cells,significantly increased
same,interaction with GhHDA6,GhHDA6,interacts
